The target of test [1] is HLA-B*44:02. The experiment in a line: IEDB peptide-MHC binding, purified MHC/competitive/radioactivity; filed as Kd, often an IC50 or EC50 that approximates it; ≥ and ≤ were set here for values at or beyond the usual limits of such assays.
The target in test [2] is HLA-B*44:03. The description is as above.
The target of test [3] is HLA-B*18:01. Described as above.
The target in test [4] is HLA-B*45:01. The description is as above.
Test [5] concerns the target HLA-B*40:01. The description is as above.
Test [6] deals with HLA-B*40:02. Described as above.
For test [7], the target named is HLA-A*02:06. The description is as above.
For test [8], the target named is HLA-A*68:02. Described as above.
The target of test [9] is HLA-A*02:03. Described as above.
Test [10] deals with HLA-A*02:01. The description is as above. The following applies: source organism: Lassa virus GA391.
The target in test [11] is HLA-A*02:02. The description is as above. Particulars: source organism: Lassa virus GA391.
The target of test [12] is HLA-A*24:02. Description: IEDB peptide-MHC binding, purified MHC/competitive/fluorescence; ≥ and ≤ were set here for values at or beyond the usual limits of such assays.
Test [13] concerns the target HLA-A*02:01. The test is described as above.
The target of test [14] is HLA-A*01:01. Description: IEDB peptide-MHC binding, purified MHC/competitive/radioactivity; filed as Kd, often an IC50 or EC50 that approximates it; ≥ and ≤ were set here for values at or beyond the usual limits of such assays. Particulars: source organism: Dengue virus 3 Martinique/1243/1999.
[15] abbreviates: source organism: SARS coronavirus Tor2.
The mark [16] stands for this setting: source organism: Mammarenavirus brazilense.
Where [17] appears, read: source organism: Lymphocytic choriomeningitis virus (strain WE).
Where [18] appears, read: source organism: Lassa virus GA391.
Setting [19] is: source organism: Dengue virus 3 Martinique/1243/1999.
Where [20] appears, read: source organism: Dengue virus 4 Philippines/H241/1956.
The mark [21] stands for this setting: source organism: Sudan ebolavirus.
Setting [22] is: source organism: Lassa virus Josiah.
Setting [23] is: source organism: Mammarenavirus whitewaterense.
Setting [24] is: source organism: Zaire ebolavirus.
Setting [25] is: source organism: Dengue virus 2 Jamaica/1409/1983.

As usually defined, the Kd is a measure of binding affinity in units of concentration. IEYSDFATSA: the Kd stood at 0.728 µM in test [1] (setting [15]); 0.658 µM in test [2] (setting [15]); 0.135 µM in test [3] (setting [15]); 0.154 µM in test [4] (setting [15]); 16.7 µM in test [5] (setting [15]); 0.147 µM in test [6] (setting [15]).
Turning to KEPGVSRELL, the Kd in test [1] (setting [16]) was ≥ 70.2 µM; in [2] (setting [16]), ≥ 70.1 µM; in test [3] (setting [16]) it was ≥ 70.4 µM; in [4] (setting [16]), ≥ 70 µM; in [5] (setting [16]) it was 1.32 µM; in test [6] (setting [16]) it was 1.06 µM.
As to KEPVESCPLM, the Kd in test [1] (setting [17]) was 14.3 µM; in test [2] (setting [17]) it was ≥ 40.8 µM; in test [3] (setting [17]), ≥ 34.4 µM; in [4] (setting [17]), ≥ 70 µM; in [5] (setting [17]), 11.8 µM; in test [6] (setting [17]), 0.208 µM.
Regarding LLHGLDFSEV, the Kd in test [7] (setting [18]) was 0.0712 µM; in test [8] (setting [18]), ≥ 5 µM; in test [9] (setting [18]), 0.00357 µM; in test [10], 0.0658 µM; in [11] it was 0.117 µM.
Consider LTVAWRTATL, for which the Kd in test [8] (setting [19]) is 0.0324 µM.
Regarding NIHTAITQV, the Kd in [8] (setting [20]) turned out to be 0.152 µM; in [9] (setting [20]), 0.0261 µM.
As for PEANMDQESF, the Kd in test [1] (setting [15]) was 7.54 µM; in test [2] (setting [15]) it was 10.6 µM; in [3] (setting [15]), ≥ 53.2 µM; in test [4] (setting [15]) it was ≥ 26 µM; in [5] (setting [15]), 4.2 µM; in test [6] (setting [15]), 10.1 µM.
The term IC50 denotes the midpoint of a concentration-inhibition curve. Consider PTLTTPENI, for which the IC50 in test [12] (setting [21]) is 53.7 µM; in test [13] (setting [21]), ≥ 269 µM.
With QVMLLVLCV, the Kd in [8] (source organism: Dengue virus 2 Peru/IQT2913/1996) is 0.143 µM.
In the case of REPTDLKQF, the Kd in test [1] (setting [22]) is 1.51 µM; in test [2] (setting [22]), 8.46 µM; in [3] (setting [22]) it was ≥ 55.4 µM; in test [4] (setting [22]), ≥ 77.7 µM; in [5] (setting [22]) it was 2.88 µM; in test [6] (setting [22]), 1 µM.
Regarding RLQQELDDL, the Kd in [8] (source organism: Homo sapiens) is ≥ 125 µM.
SDHLISEIL: the Kd in test [1] (setting [23]) was 9.12 µM; in test [2] (setting [23]) it was ≥ 78.1 µM; in [3] (setting [23]), ≥ 77.5 µM; in [4] (setting [23]) it was 1.66 µM; in test [5] (setting [23]) it was 8.52 µM; in test [6] (setting [23]), 0.0831 µM.
For the sequence SEFDRDAAM, the Kd in test [1] (setting [15]) was 0.745 µM; in test [2] (setting [15]), 0.532 µM; in test [3] (setting [15]) it was 2.51 µM; in [4] (setting [15]), 18.3 µM; in test [5] (setting [15]), 0.21 µM; in [6] (setting [15]), 1.01 µM.
For TLATISTSP, the results for the IC50 in test [12] (setting [24]) and in test [13] (setting [24]) were ≥ 88.9 µM and 29.7 µM, respectively.
Consider TTGRLIWTL, for which the values for the IC50 in test [12] (setting [21]) and in test [13] (setting [21]) were 0.309 µM and 2 µM, respectively.
Turning to VVIAILTVV, the figures for the Kd in test [7] (setting [25]), in [8] (setting [25]) and in test [9] (setting [25]) were 0.0136 µM, 0.347 µM and 0.0338 µM, respectively.
On to YEAMYTPHT, for which the Kd in [1] (setting [15]) is ≥ 21.8 µM; in test [2] (setting [15]) it was 13 µM; in test [3] (setting [15]) it was 2.8 µM; in test [4] (setting [15]), 0.149 µM; in test [5] (setting [15]), 14.4 µM; in [6] (setting [15]), 0.242 µM.
For the sequence YEQQTVNST, the Kd in test [1] (setting [16]) was ≥ 34.1 µM; in [2] (setting [16]) it was ≥ 78.1 µM; in test [3] (setting [16]), 1.13 µM; in test [4] (setting [16]), 1.21 µM; in test [5] (setting [16]), ≥ 54.2 µM; in test [6] (setting [16]) it was 0.0783 µM.
Turning to YSIPATLLV, the Kd in test [7] (setting [19]) is 0.0102 µM; in test [8] (setting [19]), 0.0169 µM; in test [14], 0.941 µM.

(Values after the Immune Epitope Database (IEDB).)
